According to US20230256092A1, “COMBINED USE OF ANTI-CCR8 ANTIBODY AND CHEMOTHERAPEUTIC AGENT” (Shionogi & Co., Ltd., priority 2020, published 2023):
Positions count from the first letter of the chain named. In names and notes the source's numbering stands.

B1: h10A11 (IGKV4-1/IGHV3-73 R50K): humanized 10A11 heavy chain CDR point mutant (antibody, V domains shown)
VL: DIVMTQSPDSLAVSLGERATINCRSSKSLLHSNGNTYLYWYQQKPGQPPKLLIYRMSNLASGVPDRFSGSGSGTDFTLTISSLQAEDVAVYYCMQHLEYPLTFGQGTKLEIKRT
VH: EVQLVESGGGLVQPGGSLKLSCAASGFAFNTYALYWVRQASGKGLEWVGKIRSKSNNYATYYADSVKDRFTISRDDSKNTAYLQMNSLKTEDTAVYYCTRARFYYSDYGYAMDYWGQGTLVTVSS
B2: h10A11 (IGKV4-1/IGHV3-73 Y59F): humanized 10A11 heavy chain CDR point mutant (antibody, V domains shown)
VL: B1 VL
VH: B1 VH with K50R, Y62F
B3: h10A11 (IGKV4-1/IGHV3-73 V63L): humanized 10A11 heavy chain CDR point mutant (antibody, V domains shown)
VL: B1 VL
VH: B1 VH with K50R, V66L
B4: h10A11 (IGKV4-1/IGHV3-73 R52K): humanized 10A11 heavy chain CDR point mutant (antibody, V domains shown)
VL: B1 VL
VH: B1 VH with K50R, R52K
B5: h10A11 (IGKV4-1/IGHV3-73 Y100dF): humanized 10A11 heavy chain CDR point mutant (antibody, V domains shown)
VL: B1 VL
VH: B1 VH with K50R, Y110F
B6: h10A11 (IGKV4-1/IGHV3-73 S52aT): humanized 10A11 heavy chain CDR point mutant (antibody, V domains shown)
VL: B1 VL
VH: B1 VH with K50R, S53T
B7: h10A11 (IGKV4-1/IGHV3-73 S62T): humanized 10A11 heavy chain CDR point mutant (antibody, V domains shown)
VL: B1 VL
VH: B1 VH with K50R, S65T
B8: h10A11 (IGKV4-1/IGHV3-73 A56V): humanized 10A11 heavy chain CDR point mutant (antibody, V domains shown)
VL: B1 VL
VH: B1 VH with K50R, A59V
B9: h10A11 (IGKV4-1/IGHV3-73 K64R): humanized 10A11 heavy chain CDR point mutant (antibody, V domains shown)
VL: B1 VL
VH: B1 VH with K50R, K67R
B10: h10A11 (IGKV4-1/IGHV3-73 M100fL): humanized 10A11 heavy chain CDR point mutant (antibody, V domains shown)
VL: B1 VL
VH: B1 VH with K50R, M112L
B11: h10A11 (IGKV4-1/IGHV3-73 A60V): humanized 10A11 heavy chain CDR point mutant (antibody, V domains shown)
VL: B1 VL
VH: B1 VH with K50R, A63V
B12: h10A11 (IGKV4-1/IGHV3-73 N53Q): humanized 10A11 heavy chain CDR point mutant (antibody, V domains shown)
VL: B1 VL
VH: B1 VH with K50R, N56Q
B13: h10A11 (IGKV4-1/IGHV3-73 A100eV): humanized 10A11 heavy chain CDR point mutant (antibody, V domains shown)
VL: B1 VL
VH: B1 VH with K50R, A111V
B14: h10A11 (IGKV4-1/IGHV3-73 Y58F): humanized 10A11 heavy chain CDR point mutant (antibody, V domains shown)
VL: B1 VL
VH: B1 VH with K50R, Y61F
B15: h10A11 (IGKV4-1/IGHV3-73 S52cT): humanized 10A11 heavy chain CDR point mutant (antibody, V domains shown)
VL: B1 VL
VH: B1 VH with K50R, S55T
B16: h10A11 (IGKV4-1/IGHV3-73 R96K): humanized 10A11 heavy chain CDR point mutant (antibody, V domains shown)
VL: B1 VL
VH: B1 VH with K50R, R102K
B17: h10A11 (IGKV4-1/IGHV3-73 D65E): humanized 10A11 heavy chain CDR point mutant (antibody, V domains shown)
VL: B1 VL
VH: B1 VH with K50R, D68E
B18: h10A11 (IGKV4-1/IGHV3-73 I51L): humanized 10A11 heavy chain CDR point mutant (antibody, V domains shown)
VL: B1 VL
VH: B1 VH with K50R, I51L
B19: h10A11 (IGKV4-1/IGHV3-73 Y98F): humanized 10A11 heavy chain CDR point mutant (antibody, V domains shown)
VL: B1 VL
VH: B1 VH with K50R, Y104F
B20: h10A11 (IGKV4-1/IGHV3-73 S100T): humanized 10A11 heavy chain CDR point mutant (antibody, V domains shown)
VL: B1 VL
VH: B1 VH with K50R, S106T
B21: h10A11 (IGKV4-1/IGHV3-73 Y100bF): humanized 10A11 heavy chain CDR point mutant (antibody, V domains shown)
VL: B1 VL
VH: B1 VH with K50R, Y108F
B22: h10A11 (IGKV4-1/IGHV3-73 F97L): humanized 10A11 heavy chain CDR point mutant (antibody, V domains shown)
VL: B1 VL
VH: B1 VH with K50R, F103L
B23: h10A11 (IGKV4-1/IGHV3-73 D61E): humanized 10A11 heavy chain CDR point mutant (antibody, V domains shown)
VL: B1 VL
VH: B1 VH with K50R, D64E
B24: h10A11 (IGKV4-1/IGHV3-73 G100cA): humanized 10A11 heavy chain CDR point mutant (antibody, V domains shown)
VL: B1 VL
VH: B1 VH with K50R, G109A
B25: h10A11 (IGKV4-1/IGHV3-73 D100aE): humanized 10A11 heavy chain CDR point mutant (antibody, V domains shown)
VL: B1 VL
VH: B1 VH with K50R, D107E
B26: h10A11 (IGKV4-1/IGHV3-73 Y99F): humanized 10A11 heavy chain CDR point mutant (antibody, V domains shown)
VL: B1 VL
VH: B1 VH with K50R, Y105F
B27: h10A11 (IGKV4-1/IGHV3-73 K52bR): humanized 10A11 heavy chain CDR point mutant (antibody, V domains shown)
VL: B1 VL
VH: B1 VH with K50R, K54R
B28: h10A11 (IGKV4-1/IGHV3-73 T57S): humanized 10A11 heavy chain CDR point mutant (antibody, V domains shown)
VL: B1 VL
VH: B1 VH with K50R, T60S
B29: h10A11 (IGKV4-1/IGHV3-73 Y55F): humanized 10A11 heavy chain CDR point mutant (antibody, V domains shown)
VL: B1 VL
VH: B1 VH with K50R, Y58F

target: T1, human CCR8 (Homo sapiens, UniProt P51685); assay: Neutralizing activity: inhibition of Ca2+ influx by 200 nM hCCL1 in human CCR8 expressing 293 cells (FLIPR), Test Example 6; format: cell-based; conditions: Table 9; WT IC50/mutant IC50; humanized 10A11 heavy chain CDR mutants, IGKV4-1/IGHV3-73
T1 construct: expressed in transfected cells; host or cells: 293 cells
Experimental: The antibody dilution diluted with a medium was added to human CCR8 expressing 293 cells in which a Ca^2+ indicator was incorporated beforehand, and Ca^2+ influx by addition of 200 nM hCCL1 (manufactured by BioLegend) was measured with FLIPR. […] The evaluation was performed at least three times, and IC50 was expressed as average±SD.

| Molecule | IC50 ratio |
| --- | --- |
| B1 | 0.12 |
| B2 | 0.03 |
| B3 | 0.56 |
| B4 | n.d. (The n.d. (=not detectable) indicates that the IC50 value of the mutant is 10 nM or more) |
| B5 | 0.55 |
| B6 | 0.22 |
| B7 | 1.60 |
| B8 | 0.55 |
| B9 | 0.54 |
| B10 | 0.72 |
| B11 | 0.67 |
| B12 | 0.03 |
| B13 | 0.49 |
| B14 | 0.50 |
| B15 | 0.53 |
| B16 | n.d. (The n.d. (=not detectable) indicates that the IC50 value of the mutant is 10 nM or more) |
| B17 | 1.30 |
| B18 | 0.22 |
| B19 | 0.07 |
| B20 | 0.64 |
| B21 | 0.75 |
| B22 | n.d. (The n.d. (=not detectable) indicates that the IC50 value of the mutant is 10 nM or more) |
| B23 | 0.25 |
| B24 | 0.07 |
| B25 | 0.30 |
| B26 | 0.80 |
| B27 | 0.47 |
| B28 | 0.49 |
| B29 | 0.47 |
